Data set [1] can be described thus: Catechol oxidase activity assay: initial rate of 3-methoxycatechol oxidation at 400 nm (pH, copper and temperature optima). Type of data set: biochemical. As for the experimental part:
PPO activity was determined by measuring the initial rate of 3-methoxycatechol oxidation at 400 nm (extinction coefficient used: ε 1200 M^−1cm^−1). One unit of activity is defined as the amount of PPO activity that oxidizes 1 μmol of 3-methoxycatechol to quinone per minute. Substrate was used at a concentration of 4 mM.
The pH optima were determined by measuring the initial rate of 3-methoxycatechol oxidation with varying pHs, at room temperature and using a CuSO4 concentration of 10 μM. The pH was varied in the range of pH3-9 using Carmody buffers. Enzyme loading was applied resulting in A400 absorbance values in the range of 0.1-1. Protein concentration was determined using the BCA method.
Optimal copper concentrations for the PPOs were determined at the optimal pH by varying the concentration of CuSO4 in the range of 1-1000 μM. In these experiments the pH was controlled using 50 mM Bis-Tris buffer pH 7.0.
Temperature optima were determined by measuring A400 absorbance after 1 h incubation at temperatures in the range of 20 to 70° C. In these experiments the pH was controlled using 50 mM Bis-Tris buffer pH 7.0. Copper concentrations of (20 or 50 μM) were used to prevent chemical oxidation as background activity at higher copper concentrations.

Data set [2] is described as follows: Conversion of syringic acid, sinapic acid and syringol by crude PPOs, absorbance at 400 nm. The note with it: 4 mM substrate, crude PPO 8.2 μg/mL, pH 6.0 or 7.0, 50 μM CuSO4, room temperature, 2, 22 and 118 h. It is filed as biochemical. As for the experimental part:
Syringic acid, sinapic acid and syringol (4 mM) were incubated with crude PPO2, 4, 6 and 7 from Example 5 in 100 mM BisTris buffer pH 6.0 or 7.0 with 50 μM CuSO4. Crude PPOs were dosed on target protein with a final concentration of 8.2 μg/mL. Substrate blanks prepared without the addition of enzyme and enzyme blanks without the addition of substrate were included. Incubations were performed in microtiterplates with a total reaction volume of 150 μL at room temperature for approximately 120 h. After 2, 22 and 118 h absorbance at 400 nm was measured.

Data set [3] can be described thus: Methanol formation by GC, lignin. It is filed as biochemical. The note with it: enzyme 0.5 g/L, 25° C., approx. 48 h. As for the experimental part:
(§1) Model compounds syringic acid, syringol, 1,3-dimethoxybenzene and 3,5-dimethoxybenzoic acid (12 mM) were incubated with PPO7 from Example 2 (2% loading (w/w)) in 50 mM BisTris buffer pH 6.5 with 10 μM CuSO4. For syringic acid and syringol PPO2 from Example 2 was included as a control. Lignin and lignin-derived compounds (10 g/L) were incubated with PPO7 from Example 2 (0.5 g/L, 5% loading (w/w)). PPO2 from Example 2 was included as a control and incubated using the same conditions. Blanks prepared without the addition of enzyme were included. Incubations were performed in GC headspace vials with a total of 1 mL reaction volume at 25° C. for approximately 48 h while shaking. The reaction was stopped by adding 28 μL 1M HCl to lower the pH to ˜3. Samples were analyzed by GC for methanol formation. A calibration range of 0.23 to 11.5 mM methanol in buffer with HCl was included.

A short description of data set [4]: Methanol formation by GC, summary statement for lignin and lignin-derived compounds. It is filed as biochemical. The note with it: lignin and lignin-derived compounds 10 g/L, enzyme 0.5 g/L. As for the experimental part:
as §1

Data set [5] has as its target T1, RAC incubated with LPMO9B (Thermothelomyces thermophilus, UniProt G2QCJ3).
T1 construct: made in house; host or cells: Myceliophthora thermophila C1 strain W1L#100.1Δpyr5ΔAlp1
T1 sequence (G2QCJ3 19-323): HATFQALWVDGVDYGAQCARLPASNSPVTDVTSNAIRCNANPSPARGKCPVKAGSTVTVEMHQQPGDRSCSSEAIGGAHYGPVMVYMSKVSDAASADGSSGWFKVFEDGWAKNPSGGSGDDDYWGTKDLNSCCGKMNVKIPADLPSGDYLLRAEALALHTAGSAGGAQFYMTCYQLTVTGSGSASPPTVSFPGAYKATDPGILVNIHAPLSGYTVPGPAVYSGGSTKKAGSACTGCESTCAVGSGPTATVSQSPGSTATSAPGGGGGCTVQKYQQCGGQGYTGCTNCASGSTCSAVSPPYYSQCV
The data set is described as follows: RAC hydrolysis assay with LPMO9B and PPO2, PPO7 or AbTyr in the presence of sinapic acid or syringic acid. Type of data set: biochemical, Myceliophthora thermophila. The note with it: LPMO9B 5 μg/ml alone = 100%, or with added enzyme, pH 5.0, 50° C., 24 h. The method, then: Reducing agents sinapic acid and syringic acid were obtained from Sigma-Aldrich (St. Louis, Mo., USA). RAC was prepared from Avicel by swelling it in phosphoric acid, (Zhang Y H P, Cui J, Lynd L R, & Kuang L R (2006) A transition from cellulose swelling to cellulose dissolution by o-phosphoric acid: Evidence from enzymatic hydrolysis and supramolecular structure. Biomacromolecules 7(2):644-648.). RAC was dissolved in 50 mM phospate buffer (pH 5.0) to a final concentration of 1.5 mg/ml. Copper chloride was added to a final concentration of 2.5 μM and dimethoxy containg reducing agent sinapic acid or syringic acid to a final concentration of 2 mM. LPMO9B (5 μg/ml) with or without PPO2 (5 μg/ml), PPO7 (5 μg/ml) or AbTyr (7.5 U/ml) were added and incubated for 24 h at 50° C. in a head-over-tail rotator in portions of 1 mL total volume (Stuart® rotator, Bibby Scientific LTD, Stone, UK) at 20 rpm. Products were analysed by HPAEC and MALDI-TOF MS as described previously. (Frommhagen M, Sforza S, Westphal A H, Visser J, Hinz S W, Koetsier M J et al. Discovery of the combined oxidative cleavage of plant xylan and cellulose by a new fungal polysaccharide monooxygenase. Biotechnology for Biofuels. 2015; 8:101. doi:10.1186/s13068-015-0284-1). The Activity denoted as “Activity*” represents total release of non-oxidized and C1-oxidized gluco-oligosaccharides from RAC incubated with LPMO9B in the presence of sinapic or syringic acid as a reducing agent and with addition of either AbTyr, PPO7 or PPO2. […] Standard deviations were less than 2%.

B1: PPO7: Myceliophthora thermophila C1 polyphenoloxidase with demethylating activity, mature form SEQ ID NO: 45 (protein, listed as Myceliophthora thermophila)
chain: NPMHKRWKPNAPRNPDFPLDEVDKLEESIMPNVEAWMSKRPAKYSNCTLENAGIRREWSDLSVDERKEYISAVLCLQSKPSKIPEGEVPGALSRFDDFVATHMTMAGQLHSPTNLFAAHRYFIHAYEKALREECGYKGYQPYMNYDRYADDPLNTPLFDGSDSSMSGNGGPYNYSGIPQPFPKPYNLIPPAGGGGCVTEGPFRDMVVSLGPKGGLFHDIPRNPRADGLGSNPRCLRRDVNKYSARGARANYTYSAIMDNPDIDSFYNRYMGMPQLKGDPYPWGLHSSGHYLIGGDPGGDFYCSPGDPLFYFHHGMLDRVWWIWQMQDPENRVQAVPGTNTMPMPPLMAANLESEAAATTTHKRAVNVSDLVVDLGWTAPPVKLVDLNEQLGGLGGELCYIYV
In data set [1] (3-methoxycatechol oxidation, room temperature, 10 μM CuSO4, Carmody buffers pH3-9), B1 yielded a pHopt of 7.0. For the same molecule, the T range in data set [1] (>50% of maximum activity) is 20-55 °C. Further, the pH range in data set [1] (>50% of maximum activity) is on record as 6.5-8.0. Further, the “[CuSO4] range” value in data set [1] (>90% of maximum activity) was 100 to 1000 µM. For the same molecule, the Topt in data set [1] (A400 after 1 h incubation, 20 to 70° C., 50 mM Bis-Tris pH 7.0, 20 or 50 μM copper) amounted to 40 °C. Besides, in data set [1] (at optimal pH, 50 mM Bis-Tris buffer pH 7.0, CuSO4 varied 1-1000 μM), the “[CuSO4]opt” value is 400 µM. For the same molecule, the “Conversion of substrates (absorbance at 400 nm)” value in data set [2] is “able to convert syringic acid, sinapic acid and syringol”. Further, the methanol in data set [3] (Corn stover BioLignin 10 g/L, blank 0) is 0.27 mM; in data set [3] (Wheat straw BioLignin 10 g/L, blank 0.10), 0.28 mM. Moreover, in data set [4], the “Methanol concentration compared to the blank (in words)” value is recorded as “increased methanol concentration compared to the blank”. Also, the entries for the “Activity: total release of non-oxidized and C1-oxidized gluco-oligosaccharides from RAC” value in data set [5] (reducing agent sinapic acid 2 mM) and in data set [5] (reducing agent syringic acid 2 mM) were 195% and 142%, respectively.

The values are drawn from patent US20190002846A1, “POLYPEPTIDES HAVING DEMETHYLATING ACTIVITY” (Genencor International B.V., priority 2015, published 2019).
